Test results published in paper PMC9712102, “Direct activation of a bacterial innate immune system by a viral capsid protein” (Nature, 2022).

Biological target: T1, CapRel^SJ46, purified full-length (Salmonella temperate phage SJ46)
T1 construct: also called purified CapRel^SJ46; source: E. coli BL21 (DE3), pET24d-His10-SUMO-capRel^SJ46, purified (nickel resin, SEC, tag removed with Ulp1); not shown: His10, N-terminal, cleaved; SUMO, N-terminal, cleaved
Assay: ITC; CapRel^SJ46 (or variant) at 150 μM in the syringe titrated into Gp57 (or variant) at 10 μM in the cell; 25 °C; 50 mM HEPES pH 7.5, 500 mM KCl, 500 mM NaCl, 150 mM imidazole, 10 mM MgCl2, 1 mM TCEP, 0.002% mellitic acid
Settings: both partners purified

B1: Gp57, purified (natural protein)
chain: MAKKYDELDATIVANHLQIQGVKTDASDMGIWTAQELHKIRSTAYEKEYPAGSALRVFPVTNELSDTDKTFEYQTFDKVGYAKIIADYTDDLPTVDALMTSEFGKVFRLGNAFLISIDEIKAGQRTGKSLSTRKANAAQNAHDQLINFLVFKGSKPHKIVSVFDHPNLTKIVSKGWMSQDGNTKFPDVASDELEAAIETIEEVTKGQHRATNILIPPSMRKVLTVRMENTTESYLEYFQKQNGGITIDSIAELEDIDGKGTKGCLVYEKDPMNMSIEIPEAFNMLPAQPKDLHFKVPCTSKCTGLTIYRPFTMVLITGLKKSV
Work on B1 yielded a Kd of 350 nM.
